Laboratory results from patent US20120283194.

Legend:
[1] = molecular target: GST:Gli1 fragment, zinc finger DNA binding region (UniProt P08151)
Sequence of GST:Gli1 fragment, zinc finger DNA binding region (P08151 235-387): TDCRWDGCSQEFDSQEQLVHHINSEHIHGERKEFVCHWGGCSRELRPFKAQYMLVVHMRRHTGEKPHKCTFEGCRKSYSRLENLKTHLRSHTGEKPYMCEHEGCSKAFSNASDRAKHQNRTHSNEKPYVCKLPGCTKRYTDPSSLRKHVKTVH

B1: recombinant HIS:aPKC (enzyme, UniProt P41743 2-596, looked up, species assumed)
Protein kinase C iota type: PTQRDSSTMSHTVAGGGSGDHSHQVRVKAYYRGDIMITHFEPSISFEGLCNEVRDMCSFDNEQLFTMKWIDEEGDPCTVSSQLELEEAFRLYELNKDSELLIHVFPCVPERPGMPCPGEDKSIYRRGARRWRKLYCANGHTFQAKRFNRRAHCAICTDRIWGLGRQGYKCINCKLLVHKKCHKLVTIECGRHSLPQEPVMPMDQSSMHSDHAQTVIPYNPSSHESLDQVGEEKEAMNTRESGKASSSLGLQDFDLLRVIGRGSYAKVLLVRLKKTDRIYAMKVVKKELVNDDEDIDWVQTEKHVFEQASNHPFLVGLHSCFQTESRLFFVIEYVNGGDLMFHMQRQRKLPEEHARFYSAEISLALNYLHERGIIYRDLKLDNVLLDSEGHIKLTDYGMCKEGLRPGDTTSTFCGTPNYIAPEILRGEDYGFSVDWWALGVLMFEMMAGRSPFDIVGSSDNPDQNTEDYLFQVILEKQIRIPRSLSVKAASVLKSFLNKDPKERLGCHPQTGFADIQGHPFFRNVDWDMMEQKQVVPPFKPNISGEFGLDNFDSQFTNEPVQLTPDDDDIVRKIDQSEFEGFEYINPLLMSAEECV
modifications: His tag
[1]
  in vitro kinase reaction: aPKC phosphorylates recombinantly expressed human Gli1 DNA-binding domain
  in vitro kinase reaction ([g-32P]ATP, SDS-PAGE, phosphor screen): with the majority of the phosphorylation occurring in the zinc finger DNA binding region of Gli1
GST:Gli1
Sequence of GST:Gli1 (P08151 whole entry): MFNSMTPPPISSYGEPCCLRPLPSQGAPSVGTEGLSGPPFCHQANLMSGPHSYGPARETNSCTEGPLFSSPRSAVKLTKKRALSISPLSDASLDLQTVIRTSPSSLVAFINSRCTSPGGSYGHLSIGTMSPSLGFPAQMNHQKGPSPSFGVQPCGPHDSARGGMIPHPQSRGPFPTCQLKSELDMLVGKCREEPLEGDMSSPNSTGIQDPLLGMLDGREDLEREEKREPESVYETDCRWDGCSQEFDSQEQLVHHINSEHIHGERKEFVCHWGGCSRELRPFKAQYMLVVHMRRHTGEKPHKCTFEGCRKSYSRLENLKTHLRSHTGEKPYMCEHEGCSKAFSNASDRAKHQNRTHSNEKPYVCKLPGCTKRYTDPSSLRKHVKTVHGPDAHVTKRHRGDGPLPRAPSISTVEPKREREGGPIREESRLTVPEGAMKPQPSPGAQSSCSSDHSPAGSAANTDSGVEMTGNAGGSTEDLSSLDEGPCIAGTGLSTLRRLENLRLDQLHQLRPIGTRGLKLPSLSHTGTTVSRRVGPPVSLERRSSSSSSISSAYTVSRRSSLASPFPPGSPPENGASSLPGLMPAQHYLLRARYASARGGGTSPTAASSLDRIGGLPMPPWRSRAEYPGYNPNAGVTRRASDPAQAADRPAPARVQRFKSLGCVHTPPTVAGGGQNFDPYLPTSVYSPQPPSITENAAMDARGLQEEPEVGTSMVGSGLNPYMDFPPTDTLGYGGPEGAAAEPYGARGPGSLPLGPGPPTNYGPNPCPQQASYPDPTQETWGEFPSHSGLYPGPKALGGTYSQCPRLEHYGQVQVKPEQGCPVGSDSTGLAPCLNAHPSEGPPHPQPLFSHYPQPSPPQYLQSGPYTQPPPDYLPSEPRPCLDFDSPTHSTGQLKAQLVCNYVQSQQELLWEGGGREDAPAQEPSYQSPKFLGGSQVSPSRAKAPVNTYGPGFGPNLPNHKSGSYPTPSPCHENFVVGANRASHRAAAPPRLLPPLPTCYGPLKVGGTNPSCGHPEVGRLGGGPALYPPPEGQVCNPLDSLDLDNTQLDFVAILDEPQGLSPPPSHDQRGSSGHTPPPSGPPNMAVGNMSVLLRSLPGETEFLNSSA
  in vitro kinase reaction ([g-32P]ATP, SDS-PAGE, phosphor screen): aPKC phosphorylates Gli1 (FIG. 3i)
